Assay results as given in patent US20220251236A1 (Boehringer Ingelheim, published 2022).

Target: T1, Human CD3 E+G HuFc-6xHis (human)
T1 construct: also called hu CD3εγ-Fc
Assay: SPR (ProteOn XPR36), HuCD3E_HuCD3G-Fc amine-coupled, bispecific as analyte, Example 4B
Method: The binding affinity of purified DLL3/CD3 bispecific constructs for recombinant human DLL3-ECD and Fc-fusion protein of human CD3 εγ subunits was determined by Surface Plasmon Resonance (SPR), using a ProteOn XPR36 instrument (Bio-Rad).
For binding kinetic determination to CD3, HuCD3E_HuCD3G-Fc (dissolved in pH 4.5 acetate) was immobilized directly onto the sensor surface through amine coupling for 360 sec at a flowrate of 30 μl/min vertically. The baseline was stabilized by injecting PBS-T-EDTA for 60 sec at a flowrate of 30 μl/min horizontally. The analytes (all anti-DLL3/CD3 molecules) were injected horizontally over the captured antibody for 600 sec at a flowrate of 30 μl/min and a dissociation for 1800 sec.

T1 sequence (chain, as listed by the source limits assumed): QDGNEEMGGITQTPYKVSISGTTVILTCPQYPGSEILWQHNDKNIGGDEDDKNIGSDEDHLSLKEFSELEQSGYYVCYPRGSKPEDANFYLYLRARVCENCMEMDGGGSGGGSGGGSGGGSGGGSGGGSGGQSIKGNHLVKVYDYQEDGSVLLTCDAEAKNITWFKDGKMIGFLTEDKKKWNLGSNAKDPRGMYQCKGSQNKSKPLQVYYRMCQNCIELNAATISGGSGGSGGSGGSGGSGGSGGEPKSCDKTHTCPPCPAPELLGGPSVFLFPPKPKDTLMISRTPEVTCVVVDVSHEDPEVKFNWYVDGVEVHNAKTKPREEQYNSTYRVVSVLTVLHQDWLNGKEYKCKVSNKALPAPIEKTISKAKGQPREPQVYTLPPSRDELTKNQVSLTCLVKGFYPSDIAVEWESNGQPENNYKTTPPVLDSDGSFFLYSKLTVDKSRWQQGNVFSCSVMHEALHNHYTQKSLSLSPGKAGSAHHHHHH

| Binder | Kd |
| --- | --- |
| DLL3#1/CD3#1 (bispecific antibody, human IgG1, kappa, lambda, L234A L235A) chain 1: EIVLTQSPGTLSLSPGERATLSCRASQSVSSNFLVWYQQKPGQAPRPLIYGASTRASGIPDRFSGSGSGADFTLTISRLEPEDFALYYCQQYGDSPYTFGQGTTLEIKRTVAAPSVFIFPPSDEQLKSGTASVVCLLNNFYPREAKVQWKVDNALQSGNSQESVTEQDSKDSTYSLSSTLTLSKADYEKHKVYACEVTHQGLSSPVTKSFNRGECGGGGSEGKSSGSGSESKSTEGKSSGSGSESKSTGGGGSQVQLVQSGAEVKKPGASVKVSCKASGNTFTNYYMHWVRQAPGPGLEWMGIIDPSVGSKSYAQKFLGRVTIARDTSTSTVFLDLYSLRSEDTAVYFCARAGKRFGESYFDYWGQGTLVTVSSASTKGPSVFPLAPSSKSTSGGTAALGCLVKDYFPEPVTVSWNSGALTSGVHTFPAVLQSSGLYSLSSVVTVPSSSLGTQTYICNVNHKPSNTKVDKRVEPKSCDKTHTCPPCPAPEAAGGPSVFLFPPKPKDTLMISRTPEVTCVVVDVSHEDPEVKFNWYVDGVEVHNAKTKPREEQYNSTYRVVSVLTVLHQDWLNGKEYKCKVSNKALPAPIEKTISKAKGQPREPQVYTLPPSREEMTKNQVSLWCLVKGFYPSDIAVEWESNGQPENNYKTTPPVLDSDGSFFLYSKLTVDKSRWQQGNVFSCSVMHEALHNHYTQKSLSLSPG chain 2: EAVVTQEPSLTVSPGGTVTLTCRSSTGAVTTSNYANWVQEKPGQLPRGLIGGTNKRAPWVPARFSGSLLGGKAALTLSGAQPEDEAEYFCALWYSNLWVFGGGTKLTVLGQPKAAPSVTLFPPSSEELQANKATLVCLISDFYPGAVKVAWKADGSPVNTGVETTTPSKQSNNKYAASSYLSLTPEQWKSHRSYSCQVTHEGSTVEKTVAPAECSGGGGSEGKSSGSGSESKSTEGKSSGSGSESKSTGGGGSEVQLVESGGGLVQPGGSLKLSCAASGFTFNTYAMNWVRQAPGKGLEWVARIRSKYNNYATYYADSVKDRFTISRDDSKNTAYLQMNNLKTEDTAVYYCVRHGNFGNSYVSWFAYWGQGTLVTVSAASTKGPSVFPLAPSSKSTSGGTAALGCLVKDYFPEPVTVSWNSGALTSGVHTFPAVLQSSGLYSLSSVVTVPSSSLGTQTYICNVNHKPSNTKVDKRVEPKSCDKTHTCPPCPAPEAAGGPSVFLFPPKPKDTLMISRTPEVTCVVVDVSHEDPEVKFNWYVDGVEVHNAKTKPREEQYNSTYRVVSVLTVLHQDWLNGKEYKCKVSNKALPAPIEKTISKAKGQPREPQVYTLPPSREEMTKNQVSLSCAVKGFYPSDIAVEWESNGQPENNYKTTPPVLDSDGSFFLVSKLTVDKSRWQQGNVFSCSVMHEALHNRFTQKSLSLSPG | 2 nM |
| DLL3#7/CD3#1 (bispecific antibody, human IgG1, kappa, lambda, L234A L235A) chain 1: EIVLTQSPDTLSLSPGERATLSCRASQSVNSNFLAWYQQKPGQTPRLLIFGTSSRATGIPDRFSGSGSGTDFTLTISRLEPEDFAVYYCQQYGSSPWTFGQGTKVEIRRTVAAPSVFIFPPSDEQLKSGTASVVCLLNNFYPREAKVQWKVDNALQSGNSQESVTEQDSKDSTYSLSSTLTLSKADYEKHKVYACEVTHQGLSSPVTKSFNRGECGGGGSEGKSSGSGSESKSTEGKSSGSGSESKSTGGGGSQVQLVESGGGVVQPGRSLRLSCAASGFTFSSYGMFWVRQAPGKGLEWVAVIWLDGDDEDYVDSVKGRFTISRDDSKNTLYLQMNSLRVDDTAIYYCARVLDYWGQGTLVTVSSASTKGPSVFPLAPSSKSTSGGTAALGCLVKDYFPEPVTVSWNSGALTSGVHTFPAVLQSSGLYSLSSVVTVPSSSLGTQTYICNVNHKPSNTKVDKRVEPKSCDKTHTCPPCPAPEAAGGPSVFLFPPKPKDTLMISRTPEVTCVVVDVSHEDPEVKFNWYVDGVEVHNAKTKPREEQYNSTYRVVSVLTVLHQDWLNGKEYKCKVSNKALPAPIEKTISKAKGQPREPQVYTLPPSREEMTKNQVSLWCLVKGFYPSDIAVEWESNGQPENNYKTTPPVLDSDGSFFLYSKLTVDKSRWQQGNVFSCSVMHEALHNHYTQKSLSLSPG chain 2: EAVVTQEPSLTVSPGGTVTLTCRSSTGAVTTSNYANWVQEKPGQLPRGLIGGTNKRAPWVPARFSGSLLGGKAALTLSGAQPEDEAEYFCALWYSNLWVFGGGTKLTVLGQPKAAPSVTLFPPSSEELQANKATLVCLISDFYPGAVKVAWKADGSPVNTGVETTTPSKQSNNKYAASSYLSLTPEQWKSHRSYSCQVTHEGSTVEKTVAPAECSGGGGSEGKSSGSGSESKSTEGKSSGSGSESKSTGGGGSEVQLVESGGGLVQPGGSLKLSCAASGFTFNTYAMNWVRQAPGKGLEWVARIRSKYNNYATYYADSVKDRFTISRDDSKNTAYLQMNNLKTEDTAVYYCVRHGNFGNSYVSWFAYWGQGTLVTVSAASTKGPSVFPLAPSSKSTSGGTAALGCLVKDYFPEPVTVSWNSGALTSGVHTFPAVLQSSGLYSLSSVVTVPSSSLGTQTYICNVNHKPSNTKVDKRVEPKSCDKTHTCPPCPAPEAAGGPSVFLFPPKPKDTLMISRTPEVTCVVVDVSHEDPEVKFNWYVDGVEVHNAKTKPREEQYNSTYRVVSVLTVLHQDWLNGKEYKCKVSNKALPAPIEKTISKAKGQPREPQVYTLPPSREEMTKNQVSLSCAVKGFYPSDIAVEWESNGQPENNYKTTPPVLDSDGSFFLVSKLTVDKSRWQQGNVFSCSVMHEALHNRFTQKSLSLSPG | 1 nM |
